Measured values as given in paper PMC3017675 (Journal of molecular biology, 2010).

Legend:
[1] = target: full-length Mycobacterium tuberculosis GroEL1 (M. tuberculosis H37Rv) (UniProt P9WPE9); experiment: SEC
[2] = target: full-length M. tuberculosis GroEL2 (M. tuberculosis, UniProt P9WPE7 1-540); experiment: peptide or protein array
Chain of full-length M. tuberculosis GroEL2 (P9WPE7 whole entry): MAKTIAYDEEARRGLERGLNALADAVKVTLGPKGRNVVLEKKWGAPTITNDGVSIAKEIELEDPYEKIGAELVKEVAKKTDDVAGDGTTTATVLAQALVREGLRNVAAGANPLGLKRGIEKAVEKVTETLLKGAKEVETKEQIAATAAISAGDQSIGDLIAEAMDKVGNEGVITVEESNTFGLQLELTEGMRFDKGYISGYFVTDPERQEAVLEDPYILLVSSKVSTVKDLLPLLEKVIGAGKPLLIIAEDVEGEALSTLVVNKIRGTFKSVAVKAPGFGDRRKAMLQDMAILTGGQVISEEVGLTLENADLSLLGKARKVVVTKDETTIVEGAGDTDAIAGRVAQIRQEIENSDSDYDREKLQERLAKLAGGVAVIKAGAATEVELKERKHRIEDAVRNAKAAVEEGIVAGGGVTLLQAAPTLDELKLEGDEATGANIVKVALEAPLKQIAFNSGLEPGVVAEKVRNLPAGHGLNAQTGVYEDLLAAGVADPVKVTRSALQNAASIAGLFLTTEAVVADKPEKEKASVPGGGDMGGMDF

Row | Molecule | stoichiometry N [1] | binding result [2]
1 | full-length Mycobacterium tuberculosis GroEL1 (from UniProt P9WPE9 1-539) (natural protein) | 2 | –
2 | GGFPSVVVTAVTATTSIS [KasA peptides Group A (spots A05-A08)] | – | binds
3 | APAADGVRAGRAMTRSLELAGL [KasA peptides Group H (spots F12-F17)] | – | binds
4 | RGAKPLARLLGAGITSDA [KasA peptides Group G (spots F01-F04)] | – | binds
5 | AVGALESVLTVLTLRDGVIP [KasA peptides Group I (spots G20-G24)] | – | binds
